Tested on: Escherichia coli TOP10
Assay: shrunken log2 fold change of peptide-encoding DNA abundance (4.5 h post-induction vs induction); higher = less antimicrobial activity (less host growth inhibition)
Conditions: time post-induction: 4.5 h; library: site-saturation at positions 5, 18, 19, 20
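Note: peptides expressed intracellularly from a pBAD plasmid library in pooled LB shake-flask culture, induced with 0.3% L-arabinose, DNA abundance read by NGS, three biological replicates, DESeq2 with apeglm shrinkage.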

Point of comparison: RRIRGRPPRLPRPRPRPSSVPRP, “shrunken log2 fold change” value 0.282. Against it:
- RRIRIRPPRLPRPRPRPENMPRP — lower, -0.396
- RRIRPRPPRLPRPRPRPSLCPRP — lower, -0.0173
- RRIRYRPPRLPRPRPRPIHWPRP — lower, -0.182
- RRIRYRPPRLPRPRPRPRFWPRP — within 0.2 log units, 0.184
- RRIRARPPRLPRPRPRPIKCPRP — lower, -0.249
- RRIRRRPPRLPRPRPRPAVIPRP — lower, 0.00992
- RRIRWRPPRLPRPRPRPGERPRP — within 0.2 log units, 0.303
- RRIRARPPRLPRPRPRPLRQPRP — higher, 0.736
- RRIRIRPPRLPRPRPRPRQLPRP — lower, -0.27
- RRIRQRPPRLPRPRPRPRTIPRP — within 0.2 log units, 0.122
- RRIRQRPPRLPRPRPRPCNNPRP — lower, -0.255
- RRIRRRPPRLPRPRPRPEEYPRP — lower, -0.173
- RRIRRRPPRLPRPRPRPKPGPRP — higher, 0.535
- RRIRFRPPRLPRPRPRPCDNPRP — lower, -0.0843
- RRIRNRPPRLPRPRPRPPCMPRP — lower, -0.0283
- RRIRYRPPRLPRPRPRPFYLPRP — lower, -0.955
- RRIRHRPPRLPRPRPRPAVKPRP — lower, -0.0915
- RRIRSRPPRLPRPRPRPSASPRP — within 0.2 log units, 0.0953
- RRIRTRPPRLPRPRPRPFHGPRP — lower, -0.0212
- RRIRGRPPRLPRPRPRPTNCPRP — within 0.2 log units, 0.31
- RRIRYRPPRLPRPRPRPAQFPRP — lower, 0.0198
- RRIRERPPRLPRPRPRPTMWPRP — lower, -0.421
- RRIRPRPPRLPRPRPRPDAMPRP — within 0.2 log units, 0.319
- RRIRQRPPRLPRPRPRPPAPPRP — within 0.2 log units, 0.399
- RRIRDRPPRLPRPRPRPVEFPRP — lower, -0.0374
- RRIRARPPRLPRPRPRPEIMPRP — within 0.2 log units, 0.43
- RRIRERPPRLPRPRPRPSCSPRP — lower, -0.412
- RRIRYRPPRLPRPRPRPPYEPRP — lower, -0.0831
- RRIRRRPPRLPRPRPRPDYFPRP — lower, -0.0877
- RRIRHRPPRLPRPRPRPASIPRP — lower, -0.164
- RRIRKRPPRLPRPRPRPGNAPRP — within 0.2 log units, 0.418
- RRIRRRPPRLPRPRPRPSRQPRP — within 0.2 log units, 0.352
- RRIRVRPPRLPRPRPRPVVSPRP — lower, 0.0132
- RRIRQRPPRLPRPRPRPDVMPRP — lower, 0.0589
- RRIRCRPPRLPRPRPRPCESPRP — lower, -0.0611
- RRIRHRPPRLPRPRPRPMIYPRP — lower, -0.105
- RRIRCRPPRLPRPRPRPVTFPRP — lower, -0.294
- RRIRDRPPRLPRPRPRPGIFPRP — within 0.2 log units, 0.0908
- RRIRLRPPRLPRPRPRPKPHPRP — within 0.2 log units, 0.207
- RRIRNRPPRLPRPRPRPNVKPRP — lower, -0.324
- RRIRERPPRLPRPRPRPFWNPRP — lower, -0.51
- RRIRGRPPRLPRPRPRPMKHPRP — lower, 0.0417
- RRIRKRPPRLPRPRPRPGEIPRP — within 0.2 log units, 0.0945
- RRIRGRPPRLPRPRPRPPAWPRP — higher, 1.34
- RRIRERPPRLPRPRPRPKDTPRP — lower, -0.115
- RRIRLRPPRLPRPRPRPCQQPRP — lower, -0.047
- RRIRFRPPRLPRPRPRPGCGPRP — higher, 0.748
- RRIRLRPPRLPRPRPRPKNNPRP — lower, -0.297
- RRIRIRPPRLPRPRPRPHTAPRP — lower, 0.055
- RRIRERPPRLPRPRPRPKSEPRP — within 0.2 log units, 0.196
- RRIRCRPPRLPRPRPRPFCCPRP — lower, -0.175
- RRIRMRPPRLPRPRPRPKQIPRP — within 0.2 log units, 0.371
- RRIRARPPRLPRPRPRPLLDPRP — higher, 0.788
- RRIRYRPPRLPRPRPRPCCVPRP — lower, -0.422
- RRIRERPPRLPRPRPRPQSLPRP — lower, -0.0684
- RRIRARPPRLPRPRPRPGNSPRP — lower, -0.108
- RRIRGRPPRLPRPRPRPLPTPRP — higher, 1.14
- RRIRNRPPRLPRPRPRPRCTPRP — lower, -0.263
- RRIRWRPPRLPRPRPRPGAMPRP — higher, 0.524
- RRIRGRPPRLPRPRPRPAWQPRP — within 0.2 log units, 0.395
- RRIRQRPPRLPRPRPRPAEDPRP — lower, 0.0312
- RRIRIRPPRLPRPRPRPSVCPRP — lower, -0.294
- RRIRRRPPRLPRPRPRPSADPRP — within 0.2 log units, 0.247
- RRIRTRPPRLPRPRPRPGICPRP — lower, -0.0258
- RRIRWRPPRLPRPRPRPYWDPRP — lower, -0.415
- RRIRSRPPRLPRPRPRPIFFPRP — within 0.2 log units, 0.124
- RRIRARPPRLPRPRPRPQPTPRP — higher, 0.781
- RRIRNRPPRLPRPRPRPLRPPRP — higher, 0.998
- RRIRMRPPRLPRPRPRPAIHPRP — within 0.2 log units, 0.156
- RRIRTRPPRLPRPRPRPKDPPRP — lower, 0.0667
- RRIRNRPPRLPRPRPRPQNSPRP — lower, -0.38
- RRIRTRPPRLPRPRPRPVGDPRP — within 0.2 log units, 0.21
- RRIRHRPPRLPRPRPRPYFWPRP — lower, -0.258
- RRIRVRPPRLPRPRPRPKVCPRP — lower, -0.0503
- RRIRKRPPRLPRPRPRPFFFPRP — higher, 0.779
- RRIRLRPPRLPRPRPRPTGIPRP — lower, -0.182
- RRIRDRPPRLPRPRPRPWTGPRP — lower, -0.118
- RRIRKRPPRLPRPRPRPWHIPRP — lower, -0.0551
- RRIRRRPPRLPRPRPRPDFVPRP — lower, -0.0983
- RRIRPRPPRLPRPRPRPDKAPRP — lower, 0.00631
- RRIRTRPPRLPRPRPRPTREPRP — lower, -0.157
- RRIRVRPPRLPRPRPRPNDTPRP — lower, -0.228
- RRIRCRPPRLPRPRPRPHKYPRP — lower, -0.618
- RRIRCRPPRLPRPRPRPVYRPRP — lower, -0.445
- RRIRIRPPRLPRPRPRPADHPRP — lower, -0.0431
- RRIRDRPPRLPRPRPRPSGWPRP — higher, 0.558
- RRIRSRPPRLPRPRPRPFWGPRP — within 0.2 log units, 0.176
- RRIRIRPPRLPRPRPRPHHPPRP — lower, -0.629
- RRIRNRPPRLPRPRPRPYGHPRP — lower, -0.256
- RRIRHRPPRLPRPRPRPQRKPRP — lower, -0.191
- RRIRTRPPRLPRPRPRPTCAPRP — within 0.2 log units, 0.175
- RRIRTRPPRLPRPRPRPLMPPRP — lower, 0.0315
- RRIRCRPPRLPRPRPRPWNGPRP — lower, -0.0552
- RRIRQRPPRLPRPRPRPLMMPRP — lower, -0.0501
- RRIRARPPRLPRPRPRPRDNPRP — within 0.2 log units, 0.295
- RRIRCRPPRLPRPRPRPPCGPRP — within 0.2 log units, 0.142
- RRIRPRPPRLPRPRPRPKDWPRP — within 0.2 log units, 0.342
- RRIRCRPPRLPRPRPRPKGIPRP — lower, 0.0519
- RRIRPRPPRLPRPRPRPFTWPRP — lower, -0.236
- RRIRVRPPRLPRPRPRPGHNPRP — lower, -0.131
- RRIRRRPPRLPRPRPRPILMPRP — lower, -0.00531
- RRIRLRPPRLPRPRPRPEVTPRP — lower, -0.046
- RRIRERPPRLPRPRPRPGNMPRP — lower, -0.0808
- RRIRMRPPRLPRPRPRPTQKPRP — within 0.2 log units, 0.168
- RRIRRRPPRLPRPRPRPANAPRP — lower, 0.055
- RRIRDRPPRLPRPRPRPNYRPRP — lower, -0.152
- RRIRPRPPRLPRPRPRPACMPRP — within 0.2 log units, 0.165
- RRIRYRPPRLPRPRPRPHFCPRP — lower, -0.428
- RRIRSRPPRLPRPRPRPFIYPRP — lower, -0.82
- RRIRSRPPRLPRPRPRPEPDPRP — higher, 0.953
- RRIRNRPPRLPRPRPRPSNGPRP — lower, -0.12
- RRIRWRPPRLPRPRPRPKWCPRP — lower, -0.0668
- RRIRQRPPRLPRPRPRPKFTPRP — lower, 0.025
- RRIRTRPPRLPRPRPRPQGTPRP — lower, 0.0402
- RRIRTRPPRLPRPRPRPAKKPRP — lower, 0.00555
- RRIRSRPPRLPRPRPRPMVFPRP — within 0.2 log units, 0.104
- RRIRVRPPRLPRPRPRPDTMPRP — lower, -0.177
- RRIRERPPRLPRPRPRPPWYPRP — lower, -0.227
- RRIRWRPPRLPRPRPRPVFDPRP — within 0.2 log units, 0.138
- RRIRQRPPRLPRPRPRPFANPRP — lower, 0.0297
- RRIRMRPPRLPRPRPRPDDNPRP — higher, 2.27
- RRIRNRPPRLPRPRPRPLAMPRP — lower, -0.21
- RRIRHRPPRLPRPRPRPIYAPRP — lower, 0.0179
- RRIRSRPPRLPRPRPRPRAKPRP — within 0.2 log units, 0.244
- RRIRARPPRLPRPRPRPYGNPRP — lower, -0.0109
- RRIRCRPPRLPRPRPRPKFDPRP — lower, -0.0305
- RRIRTRPPRLPRPRPRPPWGPRP — lower, 0.0724
- RRIRVRPPRLPRPRPRPNVEPRP — lower, -0.0461
- RRIRYRPPRLPRPRPRPPDCPRP — lower, -0.00396
- RRIRTRPPRLPRPRPRPFPNPRP — lower, -0.105
- RRIRPRPPRLPRPRPRPCKIPRP — lower, -0.0494
- RRIRLRPPRLPRPRPRPTLKPRP — lower, -0.307
- RRIRWRPPRLPRPRPRPLETPRP — lower, -0.0608
- RRIRARPPRLPRPRPRPRKCPRP — within 0.2 log units, 0.154
- RRIRERPPRLPRPRPRPKSPPRP — within 0.2 log units, 0.163
- RRIRTRPPRLPRPRPRPIVKPRP — lower, -0.144
- RRIRYRPPRLPRPRPRPIRNPRP — lower, -1.17
- RRIRWRPPRLPRPRPRPPQMPRP — higher, 0.592
- RRIRGRPPRLPRPRPRPAWWPRP — higher, 1.39
- RRIRWRPPRLPRPRPRPLGSPRP — lower, -0.0308
- RRIRCRPPRLPRPRPRPGVGPRP — within 0.2 log units, 0.455
- RRIRRRPPRLPRPRPRPYCNPRP — lower, -0.834
- RRIRFRPPRLPRPRPRPRFTPRP — within 0.2 log units, 0.0956
- RRIRCRPPRLPRPRPRPGIGPRP — within 0.2 log units, 0.295
- RRIRERPPRLPRPRPRPQWQPRP — lower, -0.109
- RRIRARPPRLPRPRPRPMAHPRP — higher, 0.733
- RRIRLRPPRLPRPRPRPNVIPRP — lower, -0.106
- RRIRHRPPRLPRPRPRPLSMPRP — lower, -0.396
- RRIRCRPPRLPRPRPRPHLAPRP — lower, -0.0147
